T1: TFAM (human, UniProt Q00059 43-245)
T1 sequence: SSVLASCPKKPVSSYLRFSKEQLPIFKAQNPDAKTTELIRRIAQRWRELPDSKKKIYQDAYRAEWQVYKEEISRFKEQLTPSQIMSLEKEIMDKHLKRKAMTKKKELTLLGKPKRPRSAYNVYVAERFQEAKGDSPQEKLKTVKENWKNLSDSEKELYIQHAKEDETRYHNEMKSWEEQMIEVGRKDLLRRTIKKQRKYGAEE

B1: LSP -41 to -12 upstream fragment (dsDNA)
DNA 1: TGTGTTAGTTGGGGGGTGACTGTTAAAAGT
DNA 2: ACTTTTAACAGTCACCCCCCAACTAACACA
B2: LSP -41 to +10 (dsDNA)
DNA 1: TGTGTTAGTTGGGGGGTGACTGTTAAAAGTGCATACCGCCAAAAGATAAAA
DNA 2: TTTTATCTTTTGGCGGTATGCACTTTTAACAGTCACCCCCCAACTAACACA

Key:
TFAM [1] = target: T1, TFAM; assay: EMSA
POLRMT;TFB2M = POLRMT;TFB2M (human;human, UniProt O00411;Q9H5Q4 43-1230;21-396, |); assay: fluorescence anisotropy
Chain of POLRMT;TFB2M (O00411 43-1230, chain 1 of 2): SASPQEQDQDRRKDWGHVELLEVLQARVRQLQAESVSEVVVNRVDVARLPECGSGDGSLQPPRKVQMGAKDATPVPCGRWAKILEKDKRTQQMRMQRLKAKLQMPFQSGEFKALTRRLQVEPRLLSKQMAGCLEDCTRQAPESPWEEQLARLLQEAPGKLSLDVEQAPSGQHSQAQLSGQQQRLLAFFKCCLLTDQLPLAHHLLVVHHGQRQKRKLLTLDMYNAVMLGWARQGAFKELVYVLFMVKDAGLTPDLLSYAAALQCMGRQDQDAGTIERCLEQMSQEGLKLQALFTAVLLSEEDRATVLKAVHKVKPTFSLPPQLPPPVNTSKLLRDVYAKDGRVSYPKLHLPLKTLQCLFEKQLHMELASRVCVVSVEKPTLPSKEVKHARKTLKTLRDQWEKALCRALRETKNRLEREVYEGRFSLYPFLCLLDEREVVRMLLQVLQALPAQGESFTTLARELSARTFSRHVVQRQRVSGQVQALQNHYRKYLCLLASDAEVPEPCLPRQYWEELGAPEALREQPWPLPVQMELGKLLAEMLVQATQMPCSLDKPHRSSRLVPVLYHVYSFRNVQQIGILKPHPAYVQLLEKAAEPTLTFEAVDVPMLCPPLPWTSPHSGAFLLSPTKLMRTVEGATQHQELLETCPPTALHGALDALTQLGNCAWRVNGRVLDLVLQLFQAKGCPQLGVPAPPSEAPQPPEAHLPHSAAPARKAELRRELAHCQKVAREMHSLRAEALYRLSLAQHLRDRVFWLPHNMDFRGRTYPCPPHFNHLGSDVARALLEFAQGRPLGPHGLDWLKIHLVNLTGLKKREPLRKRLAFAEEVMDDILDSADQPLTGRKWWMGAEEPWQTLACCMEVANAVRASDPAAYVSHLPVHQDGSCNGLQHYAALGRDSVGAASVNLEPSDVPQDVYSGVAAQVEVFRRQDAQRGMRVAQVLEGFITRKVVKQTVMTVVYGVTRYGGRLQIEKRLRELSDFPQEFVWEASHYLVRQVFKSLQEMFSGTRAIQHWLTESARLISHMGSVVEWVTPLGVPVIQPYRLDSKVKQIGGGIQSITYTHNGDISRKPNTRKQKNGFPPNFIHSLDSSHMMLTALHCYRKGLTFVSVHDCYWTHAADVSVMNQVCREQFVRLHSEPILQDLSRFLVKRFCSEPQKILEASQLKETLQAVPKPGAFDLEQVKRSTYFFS
Chain of POLRMT;TFB2M (Q9H5Q4 21-396, chain 2 of 2): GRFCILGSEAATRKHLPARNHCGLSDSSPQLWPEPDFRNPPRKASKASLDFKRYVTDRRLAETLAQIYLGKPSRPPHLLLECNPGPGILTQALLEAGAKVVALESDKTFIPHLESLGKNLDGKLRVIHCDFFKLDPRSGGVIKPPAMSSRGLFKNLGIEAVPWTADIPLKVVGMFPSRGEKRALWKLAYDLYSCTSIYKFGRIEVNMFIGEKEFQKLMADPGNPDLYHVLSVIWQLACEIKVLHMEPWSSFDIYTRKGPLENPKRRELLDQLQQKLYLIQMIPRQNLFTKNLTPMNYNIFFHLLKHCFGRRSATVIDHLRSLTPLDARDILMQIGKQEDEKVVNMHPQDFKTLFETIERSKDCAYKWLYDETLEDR

POLRMT = POLRMT (human, UniProt O00411 43-1230); assay: fluorescence anisotropy
Chain of POLRMT (O00411 43-1230): as the sequence (O00411 43-1230, chain 1 of 2) above

TFAM [2] = target: T1, TFAM; assay: fluorescence anisotropy
POLRMT;TFAM = POLRMT;TFAM (human;human, UniProt O00411;Q00059 43-1230;43-245, |); assay: fluorescence anisotropy
Chain of POLRMT;TFAM (O00411 43-1230, one chain of several): as the sequence (O00411 43-1230, chain 1 of 2) above

POLRMT;TFAM;TFB2M = POLRMT;TFAM;TFB2M (human;human;human, UniProt O00411;Q00059;Q9H5Q4 43-1230;43-245;21-396, ||); assay: fluorescence anisotropy
Chain of POLRMT;TFAM;TFB2M (O00411 43-1230, chain 1 of 2): as above
Chain of POLRMT;TFAM;TFB2M (Q9H5Q4 21-396, chain 3 of 2): as the sequence (Q9H5Q4 21-396, chain 2 of 2) above

Binder | binding result (TFAM [1]) | Kd (POLRMT;TFB2M) [nM] | Kd (POLRMT) [nM] | Kd (TFAM [2]) [nM] | Kd (POLRMT;TFAM) [nM] | Kd (POLRMT;TFAM;TFB2M) [nM]
B1 | binds | 5 | 8 |  |  | 
B2 |  |  |  | 7 | 3 | 4
